In patent US20130101595A1:

Assays:
[1] = molecular target: recombinant human IL-18 (rhIL-18) (human) (UniProt Q14116); experiment: cell-based or functional assay
[2] = molecular target: recombinant human IL-18 (rhIL-18) (human) (UniProt Q14116); experiment: SPR (BIAcore), biotinylated rhIL-18 on streptavidin chip, antibody in solution

IC50 Value, KG-1 cell-based IL-18 neutralization assay (hIFN-gamma) [1]: 200 pM | Kd [2]: 620 pM | koff [2]: 0.00011 s⁻¹ | kon [2]: 170000 M⁻¹ s⁻¹
B1: 125-2H (antibody, from another filing, V domains shown)
VH: EIQLQQSGPELVKPGASVKVSCKASGYSFTDYFIYWVKQSHGKSLEWIGDIDPYNGDTSYNQKFRDKATLTVDQSSTTAFMHLNSLTSEDSAVYFCARGLRFWGQGTLVTVSA
VL: DIQMTQSPSSLSASLGERVSLTCRASQDIGSKLYWLQQEPDGTFKRLIYATSSLDSGVPKRFSGSRSGSDYSLTISSLESEDFVDYYCLQYASSPYTFGGGTKLAIKR
